Source: publication PMC10638397, “Engineering sulfonate group donor regeneration systems to boost biosynthesis of sulfated compounds” (Nature Communications, 2023)

How the values were obtained:
[1] = substrate: Nc1ncnc2c1ncn2[C@@H]1O[C@H](COP(=O)(O)OS(=O)(=O)O)[C@@H](OP(=O)(O)O)[C@H]1O; assay: sulfotransferase kinetics, HPLC-MS; format: biochemical, Mycolicibacterium smegmatis; settings: sulfonate acceptor trehalose, Mg2+, pH 7.5, 35 °C (general assay)
Description: sulfotransferase kinetics, HPLC-MS on trehalose sulfotransferase (Stf0)

[2] = substrate: Nc1ncnc2c1ncn2[C@@H]1O[C@H](COP(=O)(O)OS(=O)(=O)O)[C@@H](OP(=O)(O)O)[C@H]1O; assay: sulfotransferase kinetics, HPLC-MS; format: biochemical, Mus musculus; settings: Mg2+, pH 7.5, 35 °C (general assay), acceptor not given
purified protein = substrate: Nc1ncnc2c1ncn2[C@@H]1O[C@H](COP(=O)(O)OS(=O)(=O)O)[C@@H](O)[C@H]1O; assay: purified protein; settings: Mg2+, pH 7.5, 35 °C (general assay), acceptor not given
[3] = substrate: Nc1ncnc2c1ncn2[C@@H]1O[C@H](COP(=O)(O)OS(=O)(=O)O)[C@@H](OP(=O)(O)O)[C@H]1O; assay: sulfotransferase kinetics, HPLC-MS; format: biochemical, Rattus norvegicus; settings: Mg2+, pH 7.5, 35 °C (general assay), acceptor not given
Description: sulfotransferase kinetics, HPLC-MS on aryl sulfotransferase IV (AST IV)

B1: trehalose sulfotransferase (Stf0) (Mycolicibacterium smegmatis MC2 155) (protein)
chain: MSDHPTAYLVLASQRSGSTLLVESLRATGVAGEPQEFFQYLPNTSMSPQPREWFADVEDQSILRLLDPLIEGKPDLAPATIWRDYIQTVGRTPNGVWGGKLMWNQTPLLVQRAKDLPDRSGSGLLSAIRDVVGSDPVLIHIHRPDVVSQAVSFWRAVQTRVWRGRPDPVRDARAEYHAGAIAHVITMLRAQEEGWRAWFTEENVEPIDVDYPYLWRNLTEVVGTVLEALGQDPRLAPKPVLERQADQRSDEWVERYRRDAQRDGLPL
[1]
  Km: 820 ± 60 µM
  kcat: 0.00988 ± 0.00025 s⁻¹
  kcat/Km: 12.1 M⁻¹ s⁻¹

B2: estrogen sulfotransferase (EST) (Mus musculus) (protein)
chain: METSMPEYYEVFGEFRGVLMDKRFTKYWEDVEMFLARPDDLVIATYPKSGTTWISEVVYMIYKEGDVEKCKEDAIFNRIPYLECRNEDLINGIKQLKEKESPRIVKTHLPPKLLPASFWEKNCKMIYLCRNAKDVAVSYYYFLLMITSYPNPKSFSEFVEKFMQGQVPYGSWYDHVKAWWEKSKNSRVLFMFYEDMKEDIRREVVKLIEFLERKPSAELVDRIIQHTSFQEMKNNPSTNYTMMPEEMMNQKVSPFMRKGIIGDWKNHFPEALRERFDEHYKQQMKDCTVKFRMEL
[2]
  Km: 1560 ± 260 µM
  kcat: 0.00849 ± 0.000572 s⁻¹
  kcat/Km: 5.44 M⁻¹ s⁻¹

B3: aryl sulfotransferase IV (AST IV) (Rattus norvegicus) (protein)
chain: MEFSRPPLVHVKGIPLIKYFAETIGPLQNFTAWPDDLLISTYPKSGTTWMSEILDMIYQGGKLEKCGRAPIYARVPFLEFKCPGVPSGLETLEETPAPRLLKTHLPLSLLPQSLLDQKVKVIYIARNAKDVVVSYYNFYNMAKLHPDPGTWDSFLENFMDGEVSYGSWYQHVKEWWELRHTHPVLYLFYEDIKENPKREIKKILEFLGRSLPEETVDSIVHHTSFKKMKENCMTNYTTIPTEIMDHNVSPFMRKGTTGDWKNTFTVAQNERFDAHYAKTMTDCDFKFRCEL
notes: recombinant in E. coli; N-terminal GST fusion printed for the whole-cell work
Purified protein
  Km: 2450 ± 500 µM
  kcat: 0.00688 s⁻¹
  kcat/Km: 2.81 M⁻¹ s⁻¹
[3]
  Km: 1430 ± 172 µM
  kcat: 0.0131 ± 0.000614 s⁻¹
  kcat/Km: 9.19 M⁻¹ s⁻¹
